Experimental data as given in patent US20070275898.

Molecular target: β subunit of DNA polymerase III of Escherichia coli (UniProt P0A988)
Sequence (P0A988 whole entry): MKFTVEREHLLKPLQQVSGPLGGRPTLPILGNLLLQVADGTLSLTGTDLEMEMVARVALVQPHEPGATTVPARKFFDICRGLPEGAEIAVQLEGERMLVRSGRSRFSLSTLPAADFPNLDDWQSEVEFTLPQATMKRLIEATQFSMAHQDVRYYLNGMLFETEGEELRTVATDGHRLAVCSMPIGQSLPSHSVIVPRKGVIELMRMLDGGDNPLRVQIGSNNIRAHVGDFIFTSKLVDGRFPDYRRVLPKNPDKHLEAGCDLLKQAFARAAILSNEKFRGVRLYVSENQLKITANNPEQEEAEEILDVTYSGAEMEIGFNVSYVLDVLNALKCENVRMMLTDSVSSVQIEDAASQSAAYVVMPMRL

Pol IVD5 mutant of Pol IV lacking the 5 C-terminal amino-acids
growth rate (OD 600 nm) of E. coli on IPTG-induced expression: a clear growth inhibition was observed for the culture expressing the wild type Pol IV protein compared to the one expressing the mutant protein
